This series concerns the target T1, Zbed4 (mouse (cDNA from mouse retinal RNA), UniProt Q80WQ9 1-1168).
T1 sequence: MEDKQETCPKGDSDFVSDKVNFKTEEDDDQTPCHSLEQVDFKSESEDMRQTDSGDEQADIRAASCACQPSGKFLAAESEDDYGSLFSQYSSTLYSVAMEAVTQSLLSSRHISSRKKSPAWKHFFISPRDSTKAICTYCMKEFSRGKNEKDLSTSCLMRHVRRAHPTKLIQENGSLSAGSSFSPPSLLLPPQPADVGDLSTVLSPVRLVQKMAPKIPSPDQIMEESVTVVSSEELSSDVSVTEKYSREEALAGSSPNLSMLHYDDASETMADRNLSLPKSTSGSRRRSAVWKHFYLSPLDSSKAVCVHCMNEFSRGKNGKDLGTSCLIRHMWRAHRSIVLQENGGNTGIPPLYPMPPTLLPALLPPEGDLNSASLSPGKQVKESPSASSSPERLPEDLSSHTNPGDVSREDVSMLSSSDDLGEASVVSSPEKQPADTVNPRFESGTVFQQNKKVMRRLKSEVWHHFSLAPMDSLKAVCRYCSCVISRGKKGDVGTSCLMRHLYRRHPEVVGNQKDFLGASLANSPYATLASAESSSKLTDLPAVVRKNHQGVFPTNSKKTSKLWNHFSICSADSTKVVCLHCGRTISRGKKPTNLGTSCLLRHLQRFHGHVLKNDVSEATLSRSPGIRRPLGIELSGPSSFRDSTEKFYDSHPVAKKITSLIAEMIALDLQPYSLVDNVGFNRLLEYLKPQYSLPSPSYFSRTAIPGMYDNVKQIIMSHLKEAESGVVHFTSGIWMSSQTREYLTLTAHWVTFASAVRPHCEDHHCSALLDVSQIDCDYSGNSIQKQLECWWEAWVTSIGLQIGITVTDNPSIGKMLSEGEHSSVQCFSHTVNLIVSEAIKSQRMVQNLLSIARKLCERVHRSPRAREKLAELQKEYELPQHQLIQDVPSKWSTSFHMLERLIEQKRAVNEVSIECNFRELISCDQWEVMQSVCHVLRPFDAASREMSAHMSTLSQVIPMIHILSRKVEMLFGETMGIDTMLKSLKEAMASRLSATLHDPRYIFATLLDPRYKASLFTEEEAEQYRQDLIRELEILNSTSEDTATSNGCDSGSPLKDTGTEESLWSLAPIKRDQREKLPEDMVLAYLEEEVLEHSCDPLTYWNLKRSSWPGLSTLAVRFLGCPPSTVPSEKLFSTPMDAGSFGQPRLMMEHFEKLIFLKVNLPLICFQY
Kind of series: EMSA; 20 ug Zbed4, 0.5 nM oligo in 20 mM HEPES pH 7.5, 150 mM NaCl, 5 mM beta-mercaptoethanol, 5% glycerol, 0.5 mM ascorbic acid, 0.5 mM propyl gallate, 10 uM ZnSO4. The note with it: protein: recombinant; tags: C-terminal His8. (Mobility shift assays separate free from complexed probe on a gel.)

Take UUUUUGGGGGGGGGGUUUUU (ssRNA) [poly-ribo-G]: the binding result is given as “binds”.

Take UUUUUCCCCCCCCCCUUUUU (ssRNA) [poly-ribo-C]: the binding result is recorded as “no binding”.

For the molecule AAAAATGGGCGGAATAAAAA (ssDNA) [GC-box2], the binding result is on record as “no binding”.

For TTTTTTTTTTTTTTTTTTT (ssDNA) [poly-T (called 20-mer, 19 T printed)], the binding result is listed as “no binding”.

Turning to AAAAAAAAAAAAAAAAAAAA (ssDNA) [poly-A (A20)], the binding result was “no binding”.

For the molecule AAAAAGGGGCGGGGCAAAAA (ssDNA) [GC-box1], the binding result is “binds”.
